Assay results taken from patent US11053313B2, “Anti-CLDN-5 antibody, and drug containing said antibody” (OSAKA UNIVERSITY, priority 2017, dated 2021).

Tests used:
[1] = target: T1, 5-5-1 (Homo sapiens, UniProt O00501, A162Q/K157R/L160F/Q156A/S151M/S155N/V152T); experiment: Epitope analysis FACS, chimeric protein 5-5-1; format: binding; conditions: antibody concentration 5 μg/mL; second extracellular loop substituted with hCLDN-1
T1 construct: expressed in transfected cells; host or cells: retrovirus-infected cells (pCX4pur)
T1 sequence (O00501 1-218 S151M/V152T/S155N/Q156A/K157R/L160F/A162Q): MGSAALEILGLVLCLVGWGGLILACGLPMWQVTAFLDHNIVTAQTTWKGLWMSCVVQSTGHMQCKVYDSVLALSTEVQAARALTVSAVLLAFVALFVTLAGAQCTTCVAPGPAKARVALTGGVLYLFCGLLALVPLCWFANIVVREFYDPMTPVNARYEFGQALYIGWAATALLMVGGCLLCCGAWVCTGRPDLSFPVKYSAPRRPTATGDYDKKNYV

[2] = tested on: ZO-1; experiment: ZO-1 localization by immunostaining in blood-brain barrier simulation system; format: cell-based; conditions: monkey BBB kit, 12 hours after addition, FIG. 14
[3] = target: T2, mCLDN-5 (Mus musculus, UniProt O54942); experiment: Evaluation of CLDN specificity by FACS, mCLDN-5-expressing cells; format: binding; conditions: hybridoma culture supernatant as primary antibody, FIG. 1B
T2 construct: expressed in transfected cells; host or cells: retrovirus-infected cells
T2 sequence (O54942 1-218): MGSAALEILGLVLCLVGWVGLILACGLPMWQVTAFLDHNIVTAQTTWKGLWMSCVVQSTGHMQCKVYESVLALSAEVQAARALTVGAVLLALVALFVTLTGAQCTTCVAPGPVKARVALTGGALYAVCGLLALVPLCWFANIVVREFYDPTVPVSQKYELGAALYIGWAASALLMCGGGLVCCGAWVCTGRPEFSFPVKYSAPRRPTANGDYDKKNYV

[4] = tested on: hCLDN-5; experiment: Epitope analysis by hCLDN-5/hCLDN-1 chimeric CLDN (FACS), loop assignment; format: binding, human; conditions: antibody concentration 5 μg/mL, hCLDN-5/hCLDN-1 chimeras
[5] = target: T2, mCLDN-5; experiment: Cross-species activity FACS, mCLDN-5-expressing cells; format: binding; conditions: antibody concentration 5 μg/mL, FIG. 2
[6] = tested on: blood-brain barrier simulation system; experiment: Material permeability of blood-brain barrier simulation system (monkey BBB kit); format: cell-based; conditions: 12 hours after addition, FIG. 13
[7] = tested on: MDCKII/hCLDN-5; experiment: TEER of CLDN-5 compulsory expression system, MDCKII/hCLDN-5; format: cell-based, human; conditions: MDCKII/hCLDN-5, FIG. 7B
[8] = target: T3, 1-1-5 (Homo sapiens, UniProt O00501, A34S/A72N/D37G/E76T/F35Y/G26A/H38D/H61Q/K48E/L36A/M29Q/M62I/Q31R/T33Y/T45A/T46M/T75S/V32I/V56S/V70L/W47Y/Y67F); experiment: Epitope analysis FACS, chimeric protein 1-1-5; format: binding; conditions: antibody concentration 5 μg/mL; first extracellular loop substituted with hCLDN-1
T3 construct: expressed in transfected cells; host or cells: retrovirus-infected cells (pCX4pur)
T3 sequence (O00501 1-218 G26A/M29Q/Q31R/V32I/T33Y/A34S/F35Y/L36A/D37G/H38D/T45A/T46M/W47Y/K48E/V56S/H61Q/M62I/Y67F/V70L/A72N/T75S/E76T): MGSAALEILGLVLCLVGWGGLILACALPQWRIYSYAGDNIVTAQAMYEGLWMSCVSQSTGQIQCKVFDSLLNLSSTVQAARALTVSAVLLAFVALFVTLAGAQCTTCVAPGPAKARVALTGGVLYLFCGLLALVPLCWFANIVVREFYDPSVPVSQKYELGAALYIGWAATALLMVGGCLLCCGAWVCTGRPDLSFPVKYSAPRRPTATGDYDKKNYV

[9] = target: T4, hCLDN-5 (Homo sapiens, UniProt O00501); experiment: Western blotting operability, HT-1080/hCLDN-5 lysate; format: binding; conditions: SDS-PAGE under reducing condition, antibody concentration 10 μg/mL, FIG. 5
T4 construct: expressed in transfected cells; host or cells: HT-1080 human fibrosarcoma cells infected with a pCX4pur-derived retrovirus (HT-1080/hCLDN-5)
T4 sequence (O00501 1-218): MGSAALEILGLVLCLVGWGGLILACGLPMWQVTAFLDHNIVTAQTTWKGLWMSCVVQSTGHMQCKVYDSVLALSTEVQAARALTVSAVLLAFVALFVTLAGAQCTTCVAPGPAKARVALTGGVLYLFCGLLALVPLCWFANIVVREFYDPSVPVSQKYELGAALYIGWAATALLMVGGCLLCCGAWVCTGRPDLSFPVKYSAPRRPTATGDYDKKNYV
Description: FIG. 5 illustrates western blotting images showing the CLDN-5 primary structure recognizability of the anti-CLDN-5 antibodies obtained in Example 3-6). The primary antibodies used are shown at the top of the images, and the used cells are shown under the primary antibodies. The names of proteins represented by bands are shown on the left side of the images.
Cell lysates were prepared from HT-1080/mock and HT-1080/hCLDN-5 obtained in Example 1-2), and the lysates were separated by SDS-PAGE under a reducing condition. By using the antibodies (antibody concentration: 10 μg/mL) obtained in Example 1 as primary antibodies, western blotting was performed according to the conventional method. As primary antibodies, commercial monoclonal antibodies (4C3C2, Invitrogen, 35-2500) recognizing the C-terminal of CLDN-5 were used as positive control, and β actin antibodies (Sigma Aldrich, A1978) were used as loading control. The results are illustrated in FIG. 5.

[10] = tested on: CLDN-5; experiment: CLDN-5 localization by immunostaining in blood-brain barrier simulation system; format: cell-based; conditions: monkey BBB kit, 12 hours after addition, FIG. 14
[11] = tested on: hCLDN-5; experiment: Epitope analysis by hCLDN-5/mCLDN-5 chimeric CLDN (D68E, T75A, S151T, TM; FACS); format: binding, human; conditions: antibody concentration 5 μg/mL, mutants D68E

recognition of 5-5-1 [1]: incapable of recognizing
binding capacity to mCLDN-5 [3]: extremely low
binding capacity to mCLDN-5 [5]: extremely low
recognition of 1-1-5 [8]: capable of recognizing
recognition of linear peptide (western blotting operability) [9]: strongly recognized
B1: R9: rat anti-CLDN-5 monoclonal antibody, IgG2b/K; VH SEQ ID NO: 17, VL SEQ ID NO: 18; example of antibody I (antibody, V domains shown)
VH: QVTLKESGPGILQPSHTLSLTCSFSGFSLNTYGVGVNWIRQPSGKGLEWLASIWWHGKTYINPSLKNRLTVSKDPSNNQAFLEVTNVDPADTATYYCAHARAQLLDYWGQGVMVTVSS
VL: DIVMTQTPSSQAVSAGEKVTMSCKSSQSLLYSGDQKNYLAWYQQKPGQSPKLLIYLTSTRESGVPDRFIGSGSGTDFTLTISSVQAEDLADYYCQQHYSYPLTFGSGTKLEI
modifications: R9 VH; R9 VL
localization properties of ZO-1 [2]: did not change
extracellular loop of CLDN-5 recognized [4]: second extracellular loop
4 kDa FITC-dextran permeability of the blood-brain barrier simulation system [6]: exhibited an activity of improving
reduction in TEER [7]: greatly reducing TEER
localization properties of CLDN-5 in the intercellular space [10]: reduced
portion of hCLDN-5 recognized [11]: domain around the 151st amino acid from the N-terminal present in the second extracellular loop
